The text below walks through data of article PMC5399129.

The target of assay [1] is MbR D183A (Methanococcoides burtonii). The assay can be described thus: native gel or EMSA; non-denaturing PAGE (4-15% gel; 25 mM Tris, 0.19 M glycine, pH 8.3) of activated MbR incubated with 1x or 10x molar 2-CABP (relative to active sites) for 1 h at room temperature; step: L2 dimers to higher oligomers up to L10; some 2-CABP-bound samples were then incubated with 20 or 40 mM EDTA for 30 min, which did not pull the higher order complexes apart. On the technique in general: A gel shift assay detects complexes by their altered migration in electrophoresis.

Assay [2] addresses MbR D366A (Methanococcoides burtonii). The description is as above.
Assay [3] addresses MbR E179A (Methanococcoides burtonii). Described as above.
For assay [4], the target named is Methanococcoides burtonii Rubisco (MbR), wild type, H6-Ub tag cleaved (Methanococcoides burtonii). The assay can be described thus: crystal structure; MbR activated (10 mM NaHCO3, 10 mM MgCl2) and incubated with a 10-fold molar excess of 2-CABP; hanging drop, room temperature; 2.6 Å; five LSus in the asymmetric unit, L10 by crystallographic symmetry.
The target is the same in assay [5]. The assay can be described thus: native gel or EMSA; non-denaturing PAGE of purified, activated MbR incubated without 2-CABP: with 4-CABP or XuBP (1x, 10x molar), 3-PGA (1x, 10x, 1000x molar) or crystallization buffer alone, 1 h at room temperature; step: L2 dimers to higher oligomers.

By stoichiometry N is commonly meant the number of molecules, sites or subunits per partner or assembly. Consider MbR D183A (enzyme), for which the stoichiometry N in assay [1] came out at 10.

Substance MbR D366A (enzyme) registered a stoichiometry N in assay [2] of 10.

With MbR E179A (enzyme), the stoichiometry N in assay [3] came to 2.

With “Methanococcoides burtonii Rubisco (MbR), wild type, H6-Ub tag cleaved (enzyme)”, the stoichiometry N is 10 in assay [4] and 2 in assay [5].
